Measurements as given in US20100129800A1, “POLYMERS AND THEIR USE AS FLUORESCENT LABELS” (priority 2007, published 2010).
Ends that are not written are not given here. Nct = N-((2S,3R)-1,3-dihydroxybutan-2-yl)-(4a,10a-dihydro-10,11-diazabenzo[b]fluoren-10-yl)acetamide monomer; Qut = N-(1,3-dihydroxybutan-2-yl)-10H-indolo[3,2-d]quinoline-11-carboxamide monomer; Pht = N-((2S,3R)-1,3-dihydroxybutan-2-yl)-2-phenylquinoline-4-carboxamide monomer; Act = N-(1,3-dihydroxybutan-2-yl)acridine-9-carboxamide monomer; code p = not defined here; Agt = not defined here; Qgt = not defined here

What was measured:
[1] = Fluorescence properties of the new compounds (excitation and emission wavelengths); type: physicochemical; conditions: free compound
[2] = test system: parallel triplex (5′-T20-3′-3′-T20-5′+A20); test: Competitive dialysis; type: binding; conditions: 1 μM ligand, 24 hours, room temperature
Excerpt: Compounds that bind nucleic acids may show preference for certain sequences. This preference can be used for the detection of specific nucleic acid sequences. One of the methods used to analyse the sequence specificity of DNA-binding compounds is the competition dialysis (c.f. Ren, J. et al., “Sequence and structural selectivity of nucleic acid binding ligands”, Biochemistry, 1999, vol. 38, pp […]). In this method different nucleic acid structures are dialyzed against a common compound solution. […] The amount of compound present in each DNA sequence is measured by fluorescence.
We analysed the sequence specificity of the following polymers of the invention: Aca-p-Aca, QgpQgp(npa), Act-(p-Act)5, Act-p-Qut-p-Agt, Act-p-Qut-p-Act, Act-p-Qut-p-Nct, Qut-p-Qut-p-Qut, Act-p-Qut-p-Qut, and Act-p-Act-p-Act for DNA sequences: • duplex with an alternating CG sequence (5′-CGCGCG-T4-CGCGCG-3′); • duplex with a contiguous CG sequence (5′- CCCGGG-T4-CCCGGG-3′); • duplex with an alternating AT sequence (5′-[…]-T4-[…]); • duplex with a contiguous AT sequence (5′-[…]-T4-[…]); • a parallel triplex (5′-T20-3′-3′-T20-5′+A20); and • a G-quadruplex (thrombin-binding aptamer: 5′-[…]-3′ (SEQ ID NO 1); (c.f. Bock, L. C. et al., “Selection of single-stranded DNA molecules that bind and inhibit human thrombin”, Nature, 1992, vol. 355, pp 564-566).
Said DNA sequences have been used in order to determine: 1) the affinity of each one of the polymers for a specific tandem of nucleotides (CG, AT, GT); and 2) if the affinity for a specific tandem of nucleotides is affected by its distribution into the sequence (i.e., if the tandem is alternated or contiguous in the sequence).
The competition dialysis assay was performed placing into a beaker 200 ml of dialysate solution containing 1 μM of ligand in 2 mM sodium phosphate, 2 mM EDTA and 0.185 M NaCl pH 7.0. A volume of 0.1 ml (at 1 mg/ml) of each DNA samples was pipeted into a separate 0.1 ml dialysis unit (Mini Slide-A-lyzer 3.5K, Pierce). The dialysis units were placed in the beaker containing the dialysate solution using a floating device. The contents were allowed to equilibrate with continuous stirring for 24 hours at room temperature. At the end of the equilibration period, DNA samples were carefully removed to eppendorf tubes and were taken to a final concentration of 1% (w/v) sodium dodecyl sulfate (SDS). The concentration of polymer within each dialysis unit was then determined by fluorescence spectroscopy. The free polymer concentration was determined using an aliquot of the dialysate solution as well as with the solution coming from a blank (without DNA) dialysis unit.
The concentration of the polymer (which is determined by fluorescence spectroscopy) indicates its specificity for a specific sequence: the more higher is the concentration, more specific is for said sequence.

duplex structure of DNA = test: Melting experiments (DNA-duplex stabilization); type: physicochemical; conditions: 1 M NaCl, 10 mM sodium phosphate buffer of pH=7; for Tm(° C.): 260 nm, 1° C./min; for ΔTm (° C.): versus unmodified oligonucleotide
Procedure: Appropriate oligonucleotides were dissolved in a solution containing 1 M NaCl, 10 mM sodium phosphate buffer of pH=7. UV Absorption spectra and melting experiments (absorbance vs temperature) were recorded in 1-cm path length cell by using a spectrophotometer, with a temperature controller and a programmed temperature increase rate of 1° C./min. Melting curves were recorded at 260 nm, and melting temperatures were measured at the maximum of the first derivatives of the melting curves.

[3] = Fluorescent properties of duplexes carrying fluorophores at the 3′-end; type: physicochemical; conditions: oligonucleotide duplex carrying fluorophore at the 3′-end
Procedure: Solid supports carrying oligomers with L-threoninol and 3-aminopropan-1,2-diol backbones were introduced on a DNA synthesizer and oligonucleotides were assembled using standard protocols. After the assembly of the desired DNA sequence, supports were treated with concentrated ammonia at 55° C. for a minimum of 6 hrs yielding oligonucleotides carrying oligomers of fluorophores at the 3′-end.
Two oligonucleotide sequences were synthetized (sequence 1: 5′-[…]-3′ sequence 2: 5′-[…]-3′) carrying different fluorophores at the 3′-end. Solid supports containing dimer and trimer fluorophores (prepared in examples 28-31) and standard protocols for oligonucleotide synthesis were used in order to obtain these modified oligonucleotides (Table 2). Ammonia deprotection was performed at 55° C. for 6 hours. The resulting solutions were concentrated to dryness. Then, the residue was dissolved in water and desalted through a NAP-10 column. Fractions containing oligonucleotides were analysed by HPLC and characterized by UV and MS spectrometry.
Next, the fluorescent properties of duplexes carrying fluorophores at the 3′-end was determined and the results are shown in Table 3: […]

| Compound | Fluorescence Excitation (nm) [1] | Fluorescence emission (nm) [1] | affinity (concentration of polymer retained, by fluorescence) [2] | Tm(° C.) (duplex structure of DNA) | ΔTm (° C.) (duplex structure of DNA) | Emission (nm) [3] | Excitation (nm) [3] |
| --- | --- | --- | --- | --- | --- | --- | --- |
| CC(O)C(COP(=O)(O)OC(C)C(COP(=O)(O)OC(C)C(COP(=O)(O)OC(C)C(COP(=O)(O)OC(C)C(COP(=O)(O)OC(C)C(CO)NC(=O)c1c2ccccc2nc2ccccc12)NC(=O)c1c2ccccc2nc2ccccc12)NC(=O)c1c2ccccc2nc2ccccc12)NC(=O)c1c2ccccc2nc2ccccc12)NC(=O)c1c2ccccc2nc2ccccc12)NC(=O)c1c2ccccc2nc2ccccc12 (stereo not drawn) [Example 30, O-{2-N-(Acridine-9-carbamoyl)-(1-hydroxybut-3-yl)} phosphate (3-1) O-{2-N-(acridine-9-carbamoyl)-(1-hydroxybut-3-yl)} phosphate (3-1) O-{2-N-(acridine-9-carbamoyl)-(1-hydroxybut-3-yl)} phosphate (3-1) O-{2-N-(acridine-9-carbamoyl)-(1-hydroxybut-3-yl)} phosphate (3-1) O-{2-N-(acridine-9-carbamoyl)-(1-hydroxybut-3-yl)} phosphate (3-1) O-{2-N-(acridine-9-carbamoyl)-3-hydroxybut-1-yl}] | 350 nm | 438 nm | high affinity | – | – | – | – |
| TTCCGGAA-p-Act-p-Pht: oligonucleotide 5′-TTCCGGAA-3′ carrying dimer Act-p-Pht at the 3′-end (DNA TTCCGGAA-{code p-Act-code p-Pht}; not fully specified; cysteine pairing not given here; reading uncertain; also: DNA oligonucleotide with 3'-Act-p-Pht dimer) | – | – | – | 43 °C | +8 °C | 440 nm | 336 nm |
| TTCCGGAA-p-Act-p-Qut-p-Nct: oligonucleotide 5′-TTCCGGAA-3′ carrying trimer Act-p-Qut-p-Nct at the 3′-end (DNA TTCCGGAA-{code p-Act-code p-Qut-code p-Nct}; not fully specified; cysteine pairing not given here; reading uncertain; also: DNA oligonucleotide with 3'-Act-p-Qut-p-Nct trimer) | – | – | – | 60 °C | +25 °C | – | – |
| TTCCGGAA-p-Act-p-Qut-p-Qut: oligonucleotide 5′-TTCCGGAA-3′ carrying trimer Act-p-Qut-p-Qut at the 3′-end (DNA TTCCGGAA-{code p-Act-code p-Qut-code p-Qut}; not fully specified; cysteine pairing not given here; reading uncertain; also: DNA oligonucleotide with 3'-Act-p-Qut-p-Qut trimer) | – | – | – | 44 °C | +9 °C | 436 nm | 352 nm |
| TTCCGGAA-p-Act-p-Qut: oligonucleotide 5′-TTCCGGAA-3′ carrying dimer Act-p-Qut at the 3′-end (DNA TTCCGGAA-{code p-Act-code p-Qut}; not fully specified; cysteine pairing not given here; reading uncertain; also: DNA oligonucleotide with 3'-Act-p-Qut dimer) | – | – | – | 44 °C | +9 °C | 485 nm | 351 nm |
| TTCCGGAA-p-Act: oligonucleotide 5′-TTCCGGAA-3′ carrying fluorophore Act at the 3′-end (DNA TTCCGGAA-{code p-Act}; not fully specified; cysteine pairing not given here; reading uncertain; also: DNA oligonucleotide with 3'-phosphate-linked Act) | – | – | – | 47 °C | +12 °C | – | – |
| TTCCGGAA-p-Agt: oligonucleotide 5′-TTCCGGAA-3′ carrying fluorophore Agt at the 3′-end (DNA TTCCGGAA-{code p-Agt}; not fully specified; cysteine pairing not given here; reading uncertain; also: DNA oligonucleotide with 3'-phosphate-linked Agt) | – | – | – | 47 °C | +12 °C | – | – |
| TTCCGGAA-p-Nct: oligonucleotide 5′-TTCCGGAA-3′ carrying fluorophore Nct at the 3′-end (DNA TTCCGGAA-{code p-Nct}; not fully specified; cysteine pairing not given here; reading uncertain; also: DNA oligonucleotide with 3'-phosphate-linked Nct) | – | – | – | 46 °C | +11 °C | 442 nm | 267 nm |
| TTCCGGAA-p-Pht: oligonucleotide 5′-TTCCGGAA-3′ carrying fluorophore Pht at the 3′-end (DNA TTCCGGAA-{code p-Pht}; not fully specified; cysteine pairing not given here; reading uncertain; also: DNA oligonucleotide with 3'-phosphate-linked Pht) | – | – | – | 41 °C | +6 °C | – | – |
| TTCCGGAA-p-Qgt: oligonucleotide 5′-TTCCGGAA-3′ carrying fluorophore Qgt at the 3′-end (DNA TTCCGGAA-{code p-Qgt}; not fully specified; cysteine pairing not given here; reading uncertain; also: DNA oligonucleotide with 3'-phosphate-linked Qgt) | – | – | – | 50 °C | +15 °C | 491 nm | 350 nm |
| TTCCGGAA-p-Qut-p-Qut: oligonucleotide 5′-TTCCGGAA-3′ carrying dimer Qut-p-Qut at the 3′-end (DNA TTCCGGAA-{code p-Qut-code p-Qut}; not fully specified; cysteine pairing not given here; reading uncertain; also: DNA oligonucleotide with 3'-Qut-p-Qut dimer) | – | – | – | 48 °C | +13 °C | 490 nm | 349 nm |
| TTCCGGAA-p-Qut: oligonucleotide 5′-TTCCGGAA-3′ carrying fluorophore Qut at the 3′-end (DNA TTCCGGAA-{code p-Qut}; not fully specified; cysteine pairing not given here; reading uncertain; also: DNA oligonucleotide with 3'-phosphate-linked Qut) | – | – | – | 44 °C | +9 °C | 492 nm | 349 nm |
